Source: the RNAGym collection of RNA variant scans (doi:10.7554/elife.80360)

B1: HDV Ribozyme (parent)
chain: GGCCGGCAUGGUCCCAGCCUCCUCGCUGGCGCCGGCUGGGCAACAUUCCGAGGGGACCGUCCCCUCGGUAAUGGCGAAUGGGACCCA

Variants of: B1
Assay: self-cleavage, relative activity (ratio to wild type); higher = more cleavage; co-transcriptional

Row | Variant | self-cleavage
1 | GGCCAGCAUGGUCCCAGCCUCCUCGCUGGCGCCGGCUGGGUAACAUUCCGAGGGGACCGUCCCCUCGGUAAUGGCGAAUGGGACCCA [G5A C41U] | 0.277
2 | GGCCAGCAUGGUCCCAGCCUCCUAGCUGGCGCCGGCUGGGCAACAUUCCGAGGGGACCGUCCCCUCGGUAAUGGCGAAUGGGACCCA [G5A C24A] | 0.0978
3 | GGCCAGCAUGGUCCCAGCCUCCUCGCUGGCGCCGGCUGGCCAACAUUCCGAGGGGACCGUCCCCUCGGUAAUGGCGAAUGGGACCCA [G5A G40C] | 0.136
4 | GGCCAACAUGGUCCCAGCCUCCUCGCUGGCGCCGGCUGGGCAACAUUCCGAGGGGACCGUCCCCUCGGUAAUGGCGAAUGGGACCCA [G5A G6A] | 0
5 | GGCCAGCAUGGUCCCAGCCUCCUCGCUGGCGCCGGCUGGGCAACAUUCCGAGGGGACCGUCCCCUCGGUAAUGGCGAAUGAGACCCA [G5A G81A] | 0.0978
6 | GGCCAGCAUGGUCCCAGCCUCCUCGCUGGCGCCGGCUGGGCAACAUUCCGAGGGGUCCGUCCCCUCGGUAAUGGCGAAUGGGACCCA [G5A A56U] | 0.106
7 | GGCCAGCAUGGUCCCAGCCUCCUCGCUGGCGCCGGCUGGGCAACAUUCCGAGGGGACCGUCCCCUCUGUAAUGGCGAAUGGGACCCA [G5A G67U] | 0.17
8 | GGCCAGCAUGGUCCCAGCCUCCUCGCUGGCGCCGGCUGGGCAACAUUCCGAGGGGACCGUCCCCUCAGUAAUGGCGAAUGGGACCCA [G5A G67A] | 0.125
9 | GGCCAGCAUGGUCCCAGCCUCCUCGCUGGCGCCGGCUGGGCAACAUUCCGACGGGACCGUCCCCUCGGUAAUGGCGAAUGGGACCCA [G5A G52C] | 0.253
10 | GGCCAGCAUGGUCCCAGCCUCCUCGCUGGCGCCGGCUGGGCAACAUUCCGAAGGGACCGUCCCCUCGGUAAUGGCGAAUGGGACCCA [G5A G52A] | 0.227
11 | GGCCAGCAUGGUCCCAGCCUCCUCGCUGGCGCCGGCUGGGCAACAUUCCGAGGGGACCGUCCCCUCGGUAAUGGCGAAUGGCACCCA [G5A G82C] | 0
12 | GGCCAGCACGGUCCCAGCCUCCUCGCUGGCGCCGGCUGGGCAACAUUCCGAGGGGACCGUCCCCUCGGUAAUGGCGAAUGGGACCCA [G5A U9C] | 0.0639
13 | GGCCAGCAUGGUCCCAGCCUCAUCGCUGGCGCCGGCUGGGCAACAUUCCGAGGGGACCGUCCCCUCGGUAAUGGCGAAUGGGACCCA [G5A C22A] | 0.0426
14 | GGCCAGCAUGGUCCCAGCCUCCUCGCUAGCGCCGGCUGGGCAACAUUCCGAGGGGACCGUCCCCUCGGUAAUGGCGAAUGGGACCCA [G5A G28A] | 0.0378
15 | GGCCAGCAUGGUCCCAGCCUCCUCGCUCGCGCCGGCUGGGCAACAUUCCGAGGGGACCGUCCCCUCGGUAAUGGCGAAUGGGACCCA [G5A G28C] | 0.104
16 | GGCCAGCAUGGUCGCAGCCUCCUCGCUGGCGCCGGCUGGGCAACAUUCCGAGGGGACCGUCCCCUCGGUAAUGGCGAAUGGGACCCA [G5A C14G] | 0.0639

Row | Variant | self-cleavage
17 | GGCCAGCAUGGUCACAGCCUCCUCGCUGGCGCCGGCUGGGCAACAUUCCGAGGGGACCGUCCCCUCGGUAAUGGCGAAUGGGACCCA [G5A C14A] | 0
18 | GGCCAGCAUGGUCCCAGCCUCCUCGCUGGCGCCGGCUGGGCAACAUUCCGAGGGGACCGUCCCCUCGGUAAUGGCGAAUGGGACACA [G5A C85A] | 0.113
19 | GGCCAGCAUGGUCCCAGCCUCCUCGCUGGCGCCGGCUGGGCAACAUUCCGAGGGGACCGUCCCCUCGGUAAUGGCGAAUGGGCCCCA [G5A A83C] | 0.175
20 | GGCCAGCAUGGUCCCAGCCUCCUCGCUGGCGCCGGCUGGGCAACAUUCCGAGGGGACCGUCCCCUCGGUAAUGGCGAAUGGGUCCCA [G5A A83U] | 0.0426
21 | GGCCAGCAUGGUCCCAGCCUCCUCGCUGGCGCCGGCUGGGCAACAUUCCGAGGGGACCGUCCCCUCGGUAUUGGCGAAUGGGACCCA [G5A A71U] | 0.231
22 | GGCCAGCAUGGUCCCAGCCUCCUCGCUGGCGCCGGCUAGGCAACAUUCCGAGGGGACCGUCCCCUCGGUAAUGGCGAAUGGGACCCA [G5A G38A] | 0.147
23 | GGCCAGCAUGGUCCCAGCCUCCUCGCUGGCGCCGGCUUGGCAACAUUCCGAGGGGACCGUCCCCUCGGUAAUGGCGAAUGGGACCCA [G5A G38U] | 0.0804
24 | GGCCAGCAUGGUCCCAGCCUCCUCUCUGGCGCCGGCUGGGCAACAUUCCGAGGGGACCGUCCCCUCGGUAAUGGCGAAUGGGACCCA [G5A G25U] | 0.0339
25 | GGCCAGCAUGGUCCCAGCCUCCUCCCUGGCGCCGGCUGGGCAACAUUCCGAGGGGACCGUCCCCUCGGUAAUGGCGAAUGGGACCCA [G5A G25C] | 0.0923
26 | GGCCAGCAUGGUCCCAGCCUUCUCGCUGGCGCCGGCUGGGCAACAUUCCGAGGGGACCGUCCCCUCGGUAAUGGCGAAUGGGACCCA [G5A C21U] | 0.163
27 | GGCCAGCAUGGUCCCAGCCUGCUCGCUGGCGCCGGCUGGGCAACAUUCCGAGGGGACCGUCCCCUCGGUAAUGGCGAAUGGGACCCA [G5A C21G] | 0.0811
28 | GGCCAGCAUGGUCCCAGCCUCCUCGCUGGCGCCGGCUGGGCAAUAUUCCGAGGGGACCGUCCCCUCGGUAAUGGCGAAUGGGACCCA [G5A C44U] | 0.0627
29 | GGCCAGCAUGGUCCCAGCCUCCUCGCUGGCGCCGGCUGGGCAAAAUUCCGAGGGGACCGUCCCCUCGGUAAUGGCGAAUGGGACCCA [G5A C44A] | 0
30 | GGCCAGCAUGGUCCCAGCCUCCUCGCUGGCGCCGGCUGGGCAACAUUCCGAGGGGACCUUCCCCUCGGUAAUGGCGAAUGGGACCCA [G5A G59U] | 0.222
31 | GGCCAGCAUGGUCCCAGCCUCCUCGCUGGCGCCGGCUGGGCAACAUUCCGAGGGGACCCUCCCCUCGGUAAUGGCGAAUGGGACCCA [G5A G59C] | 0.219
32 | GGCCAGCAUGGUCCCAGCCUCCUCGCUGGCGCCGUCUGGGCAACAUUCCGAGGGGACCGUCCCCUCGGUAAUGGCGAAUGGGACCCA [G5A G35U] | 0.0396
